Each sequence was assayed against EPHB2 (UniProt P29323) (assay: phosphorylation enrichment, bacterial display (enrichment ratio); higher = better substrate or ligand; peptides without Tyr show the background).
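Note: 11-residue human phosphosite peptides and single-mutation variants displayed on the E. coli surface, counted by deep sequencing, each peptide's frequency after selection divided by its frequency in the unselected input library; frequency after pTyr selection over input frequency; kinase dosed for 20-30% of maximal phosphorylation in three min.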

Sequence of EPHB2 (P29323 whole entry, looked up): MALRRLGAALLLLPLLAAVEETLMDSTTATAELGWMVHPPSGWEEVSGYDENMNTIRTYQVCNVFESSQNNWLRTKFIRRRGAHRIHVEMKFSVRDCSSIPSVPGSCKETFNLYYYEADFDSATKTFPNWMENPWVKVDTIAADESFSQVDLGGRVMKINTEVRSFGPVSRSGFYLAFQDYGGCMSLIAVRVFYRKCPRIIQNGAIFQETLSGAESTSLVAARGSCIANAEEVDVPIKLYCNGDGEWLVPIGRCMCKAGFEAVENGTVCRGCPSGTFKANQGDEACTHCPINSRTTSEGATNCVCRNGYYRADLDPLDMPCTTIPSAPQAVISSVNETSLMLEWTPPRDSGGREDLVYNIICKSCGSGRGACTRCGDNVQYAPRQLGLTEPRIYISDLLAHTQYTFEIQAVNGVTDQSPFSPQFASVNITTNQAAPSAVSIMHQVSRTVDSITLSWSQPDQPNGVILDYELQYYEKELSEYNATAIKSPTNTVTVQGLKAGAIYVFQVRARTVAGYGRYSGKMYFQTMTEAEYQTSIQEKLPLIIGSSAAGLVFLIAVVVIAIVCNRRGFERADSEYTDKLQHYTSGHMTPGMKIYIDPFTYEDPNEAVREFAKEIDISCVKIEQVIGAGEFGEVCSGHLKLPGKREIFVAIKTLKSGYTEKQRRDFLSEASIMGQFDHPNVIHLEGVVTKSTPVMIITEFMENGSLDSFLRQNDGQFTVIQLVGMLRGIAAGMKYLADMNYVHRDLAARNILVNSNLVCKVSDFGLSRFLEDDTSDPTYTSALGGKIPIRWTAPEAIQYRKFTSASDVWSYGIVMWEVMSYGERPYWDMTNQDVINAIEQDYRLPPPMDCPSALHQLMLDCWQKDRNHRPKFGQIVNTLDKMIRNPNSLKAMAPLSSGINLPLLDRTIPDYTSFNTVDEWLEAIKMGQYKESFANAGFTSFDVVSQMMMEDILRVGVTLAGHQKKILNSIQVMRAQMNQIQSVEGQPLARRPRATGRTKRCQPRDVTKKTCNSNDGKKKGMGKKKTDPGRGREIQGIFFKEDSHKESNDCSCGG

Sequence | phosphorylation enrichment
WFQTKYEELQI [KRT6B_Y360_YF] | 0.488
TNLVPYPRIHF [TUBA1A_Y262] | 0.422
FYDANCDGKEY [MAPRE2_Y162_Y162C] | 0.682
RQSTLYSFFPT [MSH6_Y8_K13T] | 21.2
IGEGTSGVVFK [CDK2_Y15_Y15S_YF] | 0.457
VSFDEYRFRSV [CFTR_Y515_YF] | 0.591
RIAFQYGVTDL [MYBPC3_Y340] | 0.627
KVQVSYKGETK [HSPA1A_Y107] | 0.449
DAVKHYMQFQK [CNGA2_Y395_R399Q] | 0.301
KPPPTYESEEE [BRD4_Y599] | 0.711
LVRAFYCERRW [CARD11_Y970_R975W] | 0.623
LMLVLYGRIFL [HTR1A_Y215_R220L] | 0.692
FMCKVYSDPQP [FGFR1_Y280] | 0.701
GSSSSYGQHGS [HRNR_Y517] | 0.343
YDDGKYVYVVT [RPS6KA3_Y488] | 0.669
LNERHYGGLTG [PGAM2_Y92] | 0.432
FFRDGHMPRQF [GSS_Y270_Y270H_YF] | 0.363
MTFQNYGQALF [FAM20C_Y279] | 1.65
DKATEYSQYMR [MAX_Y70_I71S] | 0.525
DPFHVYIKNRV [KCNE3_Y95_YF] | 0.464
KAIMIYVSSFF [ACTN4_Y260_T259I_YF] | 0.606
QPSALYEDRFL [ASS1_Y83_S79P_YF] | 2.01

These sequences were tested against Hck (UniProt P08631) in the same assay as above.
Sequence of Hck (P08631 whole entry, looked up): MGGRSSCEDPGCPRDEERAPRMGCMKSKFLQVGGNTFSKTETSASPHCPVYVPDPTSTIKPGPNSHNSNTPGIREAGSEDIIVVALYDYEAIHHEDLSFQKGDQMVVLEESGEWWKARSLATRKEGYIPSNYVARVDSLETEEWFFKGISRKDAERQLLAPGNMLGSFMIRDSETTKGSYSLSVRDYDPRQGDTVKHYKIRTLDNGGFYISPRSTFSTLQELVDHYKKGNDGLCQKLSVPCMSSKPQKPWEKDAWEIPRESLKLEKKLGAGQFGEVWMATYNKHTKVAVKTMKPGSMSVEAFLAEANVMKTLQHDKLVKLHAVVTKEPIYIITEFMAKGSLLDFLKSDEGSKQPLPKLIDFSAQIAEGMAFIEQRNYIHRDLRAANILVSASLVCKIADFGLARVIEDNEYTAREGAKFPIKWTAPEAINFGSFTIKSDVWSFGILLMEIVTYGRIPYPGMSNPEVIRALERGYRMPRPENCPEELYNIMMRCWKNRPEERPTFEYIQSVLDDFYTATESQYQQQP

Sequence | phosphorylation enrichment
WFQTKYEELQI [KRT6B_Y360_YF] | 0.417
TNLVPYPRIHF [TUBA1A_Y262] | 0.369
FYDANCDGKEY [MAPRE2_Y162_Y162C] | 0.563
RQSTLYSFFPT [MSH6_Y8_K13T] | 9.63
IGEGTSGVVFK [CDK2_Y15_Y15S_YF] | 0.449
VSFDEYRFRSV [CFTR_Y515_YF] | 0.574
RIAFQYGVTDL [MYBPC3_Y340] | 0.647
KVQVSYKGETK [HSPA1A_Y107] | 0.346
DAVKHYMQFQK [CNGA2_Y395_R399Q] | 0.552
KPPPTYESEEE [BRD4_Y599] | 0.641
LVRAFYCERRW [CARD11_Y970_R975W] | 0.634
LMLVLYGRIFL [HTR1A_Y215_R220L] | 0.654
FMCKVYSDPQP [FGFR1_Y280] | 0.578
GSSSSYGQHGS [HRNR_Y517] | 0.339
YDDGKYVYVVT [RPS6KA3_Y488] | 1.04
LNERHYGGLTG [PGAM2_Y92] | 0.454
FFRDGHMPRQF [GSS_Y270_Y270H_YF] | 0.357
MTFQNYGQALF [FAM20C_Y279] | 0.462
DKATEYSQYMR [MAX_Y70_I71S] | 0.556
DPFHVYIKNRV [KCNE3_Y95_YF] | 0.437
KAIMIYVSSFF [ACTN4_Y260_T259I_YF] | 0.429
QPSALYEDRFL [ASS1_Y83_S79P_YF] | 6.97

Each sequence was assayed on Fer (mouse) in the same assay as above.

Sequence | phosphorylation enrichment
WFQTKYEELQI [KRT6B_Y360_YF] | 0.46
TNLVPYPRIHF [TUBA1A_Y262] | 0.449
FYDANCDGKEY [MAPRE2_Y162_Y162C] | 0.527
RQSTLYSFFPT [MSH6_Y8_K13T] | 14.2
IGEGTSGVVFK [CDK2_Y15_Y15S_YF] | 0.382
VSFDEYRFRSV [CFTR_Y515_YF] | 0.567
RIAFQYGVTDL [MYBPC3_Y340] | 0.558
KVQVSYKGETK [HSPA1A_Y107] | 0.378
DAVKHYMQFQK [CNGA2_Y395_R399Q] | 0.424
KPPPTYESEEE [BRD4_Y599] | 0.753
LVRAFYCERRW [CARD11_Y970_R975W] | 0.59
LMLVLYGRIFL [HTR1A_Y215_R220L] | 0.745
FMCKVYSDPQP [FGFR1_Y280] | 0.591
GSSSSYGQHGS [HRNR_Y517] | 0.316
YDDGKYVYVVT [RPS6KA3_Y488] | 0.811
LNERHYGGLTG [PGAM2_Y92] | 0.394
FFRDGHMPRQF [GSS_Y270_Y270H_YF] | 0.355
MTFQNYGQALF [FAM20C_Y279] | 0.496
DKATEYSQYMR [MAX_Y70_I71S] | 0.499
DPFHVYIKNRV [KCNE3_Y95_YF] | 0.486
KAIMIYVSSFF [ACTN4_Y260_T259I_YF] | 0.444
QPSALYEDRFL [ASS1_Y83_S79P_YF] | 10.6

These sequences were tested against EPHB1 (UniProt P54762) in the same assay as above.
Sequence of EPHB1 (P54762 whole entry, looked up): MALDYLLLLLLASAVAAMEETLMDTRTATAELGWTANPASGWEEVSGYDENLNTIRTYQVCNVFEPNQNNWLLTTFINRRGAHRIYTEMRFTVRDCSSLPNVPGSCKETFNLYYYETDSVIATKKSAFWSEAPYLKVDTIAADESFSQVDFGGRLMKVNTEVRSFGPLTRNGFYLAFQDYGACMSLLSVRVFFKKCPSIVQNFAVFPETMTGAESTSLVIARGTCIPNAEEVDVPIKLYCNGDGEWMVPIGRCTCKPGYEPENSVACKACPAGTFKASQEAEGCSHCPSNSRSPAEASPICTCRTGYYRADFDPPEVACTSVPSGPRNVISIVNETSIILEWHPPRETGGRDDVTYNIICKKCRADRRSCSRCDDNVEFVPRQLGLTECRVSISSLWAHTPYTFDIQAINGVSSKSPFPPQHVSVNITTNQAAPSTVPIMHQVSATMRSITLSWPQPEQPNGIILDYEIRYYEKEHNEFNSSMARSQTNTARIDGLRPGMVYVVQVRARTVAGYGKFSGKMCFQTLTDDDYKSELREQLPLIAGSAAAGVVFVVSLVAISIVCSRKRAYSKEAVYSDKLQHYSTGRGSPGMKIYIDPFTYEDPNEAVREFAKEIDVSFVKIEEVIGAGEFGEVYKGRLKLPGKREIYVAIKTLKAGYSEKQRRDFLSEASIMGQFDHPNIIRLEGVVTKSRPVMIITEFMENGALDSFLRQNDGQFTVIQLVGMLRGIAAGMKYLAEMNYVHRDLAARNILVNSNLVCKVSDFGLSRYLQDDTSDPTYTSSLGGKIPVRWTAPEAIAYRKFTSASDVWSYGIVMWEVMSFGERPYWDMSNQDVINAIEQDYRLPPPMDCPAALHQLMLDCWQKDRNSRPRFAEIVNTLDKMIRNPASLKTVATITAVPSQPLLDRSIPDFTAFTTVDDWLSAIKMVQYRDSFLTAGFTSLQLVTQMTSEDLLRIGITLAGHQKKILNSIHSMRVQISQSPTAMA

Sequence | phosphorylation enrichment
WFQTKYEELQI [KRT6B_Y360_YF] | 0.446
TNLVPYPRIHF [TUBA1A_Y262] | 1.18
FYDANCDGKEY [MAPRE2_Y162_Y162C] | 0.651
RQSTLYSFFPT [MSH6_Y8_K13T] | 16.1
IGEGTSGVVFK [CDK2_Y15_Y15S_YF] | 0.418
VSFDEYRFRSV [CFTR_Y515_YF] | 0.519
RIAFQYGVTDL [MYBPC3_Y340] | 0.709
KVQVSYKGETK [HSPA1A_Y107] | 0.442
DAVKHYMQFQK [CNGA2_Y395_R399Q] | 0.451
KPPPTYESEEE [BRD4_Y599] | 0.653
LVRAFYCERRW [CARD11_Y970_R975W] | 0.671
LMLVLYGRIFL [HTR1A_Y215_R220L] | 1.11
FMCKVYSDPQP [FGFR1_Y280] | 0.752
GSSSSYGQHGS [HRNR_Y517] | 0.315
YDDGKYVYVVT [RPS6KA3_Y488] | 0.724
LNERHYGGLTG [PGAM2_Y92] | 0.417
FFRDGHMPRQF [GSS_Y270_Y270H_YF] | 0.367
MTFQNYGQALF [FAM20C_Y279] | 0.758
DKATEYSQYMR [MAX_Y70_I71S] | 0.45
DPFHVYIKNRV [KCNE3_Y95_YF] | 0.604
KAIMIYVSSFF [ACTN4_Y260_T259I_YF] | 0.457
QPSALYEDRFL [ASS1_Y83_S79P_YF] | 3.04

Source: the supplement of paper PMC10065799, “High-throughput profiling of sequence recognition by tyrosine kinases and SH2 domains using bacterial peptide display” (eLife, 2023)
